Measured values as given in the supplement of paper PMC9112550, “Optimization of the antimicrobial peptide Bac7 by deep mutational scanning” (BMC Biology, 2022).

Tested on: Escherichia coli TOP10
Test: shrunken log2 fold change of peptide-encoding DNA abundance (4.5 h post-induction vs induction); higher = less antimicrobial activity (less host growth inhibition)
Settings: time post-induction: 4.5 h; library: site-saturation at positions 5, 18, 19, 20
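Further: peptides expressed intracellularly from a pBAD plasmid library in pooled LB shake-flask culture, induced with 0.3% L-arabinose, DNA abundance read by NGS, three biological replicates, DESeq2 with apeglm shrinkage.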

Row | Sequence | shrunken log2 fold change
1 | RRIRKRPPRLPRPRPRPMIKPRP | -0.0199
2 | RRIRLRPPRLPRPRPRPNFMPRP | -0.117
3 | RRIRWRPPRLPRPRPRPNPMPRP | -0.176
4 | RRIRARPPRLPRPRPRPGSMPRP | 0.135
5 | RRIRFRPPRLPRPRPRPQQLPRP | -0.437
6 | RRIRARPPRLPRPRPRPGQWPRP | 0.466
7 | RRIRKRPPRLPRPRPRPLAEPRP | 1.11
8 | RRIRMRPPRLPRPRPRPMNQPRP | 0.646
9 | RRIRKRPPRLPRPRPRPHRAPRP | 0.515
10 | RRIRWRPPRLPRPRPRPLITPRP | 0.0192
11 | RRIRFRPPRLPRPRPRPSLQPRP | -0.31
12 | RRIRWRPPRLPRPRPRPFVEPRP | -0.436
13 | RRIRCRPPRLPRPRPRPASFPRP | -0.176
14 | RRIRERPPRLPRPRPRPRCEPRP | 0.0736
15 | RRIRERPPRLPRPRPRPMAWPRP | 0.151
16 | RRIRKRPPRLPRPRPRPLLRPRP | 0.477
17 | RRIRTRPPRLPRPRPRPQWRPRP | 0.207
18 | RRIRYRPPRLPRPRPRPTKYPRP | -0.836
19 | RRIRHRPPRLPRPRPRPMMYPRP | -0.0859
20 | RRIRTRPPRLPRPRPRPMFGPRP | 0.115
21 | RRIRYRPPRLPRPRPRPRHGPRP | -0.0607
22 | RRIRDRPPRLPRPRPRPIKDPRP | -4
23 | RRIRFRPPRLPRPRPRPMVSPRP | -0.144
24 | RRIRARPPRLPRPRPRPSISPRP | 0.0682
25 | RRIRGRPPRLPRPRPRPIPCPRP | 0.184

Row | Sequence | shrunken log2 fold change
26 | RRIRVRPPRLPRPRPRPGFEPRP | 0.554
27 | RRIRVRPPRLPRPRPRPQSLPRP | 0.0116
28 | RRIRHRPPRLPRPRPRPLKEPRP | -0.0179
29 | RRIRYRPPRLPRPRPRPSPFPRP | 0.0737
30 | RRIRYRPPRLPRPRPRPTRHPRP | -0.00457
31 | RRIRFRPPRLPRPRPRPKRHPRP | 0.134
32 | RRIRKRPPRLPRPRPRPPSMPRP | 0.669
33 | RRIRWRPPRLPRPRPRPFTPPRP | -0.0823
34 | RRIRQRPPRLPRPRPRPDMMPRP | 0.142
35 | RRIRGRPPRLPRPRPRPRVPPRP | 0.356
36 | RRIRIRPPRLPRPRPRPNDDPRP | -0.0364
37 | RRIRFRPPRLPRPRPRPWEFPRP | -0.12
38 | RRIRARPPRLPRPRPRPMTRPRP | 0.849
39 | RRIRKRPPRLPRPRPRPAQEPRP | 0.371
40 | RRIRARPPRLPRPRPRPFQKPRP | 0.121
41 | RRIRIRPPRLPRPRPRPHEQPRP | -0.288
42 | RRIRARPPRLPRPRPRPTDFPRP | -0.000766
43 | RRIRSRPPRLPRPRPRPIYDPRP | 0.0384
44 | RRIRARPPRLPRPRPRPRDWPRP | 0.577
45 | RRIRLRPPRLPRPRPRPMPCPRP | -0.12
46 | RRIRSRPPRLPRPRPRPVTFPRP | -0.21
47 | RRIRGRPPRLPRPRPRPVTAPRP | 0.74
48 | RRIRCRPPRLPRPRPRPISSPRP | -0.0694
49 | RRIRCRPPRLPRPRPRPFHNPRP | 2.29
50 | RRIRMRPPRLPRPRPRPVKGPRP | 0.0743

Row | Sequence | shrunken log2 fold change
51 | RRIRCRPPRLPRPRPRPVVYPRP | -0.0321
52 | RRIRSRPPRLPRPRPRPQSSPRP | -0.192
53 | RRIRIRPPRLPRPRPRPMYTPRP | -0.244
54 | RRIRPRPPRLPRPRPRPFMFPRP | -0.361
55 | RRIRDRPPRLPRPRPRPTWGPRP | 0.282
56 | RRIRIRPPRLPRPRPRPFLSPRP | -0.282
57 | RRIRCRPPRLPRPRPRPDGWPRP | 0.378
58 | RRIRKRPPRLPRPRPRPVCPPRP | 0.0175
59 | RRIRDRPPRLPRPRPRPMGEPRP | -6.53e-05
60 | RRIRPRPPRLPRPRPRPDCDPRP | 0.0888
61 | RRIRYRPPRLPRPRPRPPCWPRP | 0.263
62 | RRIRPRPPRLPRPRPRPFCNPRP | -0.609
63 | RRIRFRPPRLPRPRPRPDQPPRP | 0.57
64 | RRIRWRPPRLPRPRPRPKEQPRP | 0.0237
65 | RRIRWRPPRLPRPRPRPNAMPRP | 0.123
66 | RRIRYRPPRLPRPRPRPIARPRP | 0.00902
67 | RRIRCRPPRLPRPRPRPYKCPRP | -0.273
68 | RRIRIRPPRLPRPRPRPQPHPRP | -0.00842
69 | RRIRHRPPRLPRPRPRPNSIPRP | -0.0178
70 | RRIRHRPPRLPRPRPRPNVLPRP | -0.0715
71 | RRIRNRPPRLPRPRPRPPWSPRP | -0.294
72 | RRIRERPPRLPRPRPRPTPTPRP | 0.174
73 | RRIRARPPRLPRPRPRPFVLPRP | -0.181
74 | RRIRSRPPRLPRPRPRPGQHPRP | 0.178
75 | RRIRYRPPRLPRPRPRPFMIPRP | -1.21

Row | Sequence | shrunken log2 fold change
76 | RRIRIRPPRLPRPRPRPCFRPRP | -0.233
77 | RRIRWRPPRLPRPRPRPNGQPRP | 0.158
78 | RRIRFRPPRLPRPRPRPNLIPRP | -0.347
79 | RRIRYRPPRLPRPRPRPHKLPRP | -0.188
80 | RRIRKRPPRLPRPRPRPPNDPRP | 0.426
81 | RRIRMRPPRLPRPRPRPKCCPRP | 0.26
82 | RRIRNRPPRLPRPRPRPCSQPRP | -0.0135
83 | RRIRNRPPRLPRPRPRPHVPPRP | -0.528
84 | RRIRGRPPRLPRPRPRPADWPRP | 1.03
85 | RRIRSRPPRLPRPRPRPEAHPRP | 0.16
86 | RRIRIRPPRLPRPRPRPSCAPRP | -0.249
87 | RRIRNRPPRLPRPRPRPRFCPRP | 0.254
88 | RRIRPRPPRLPRPRPRPCHQPRP | 0.0122
89 | RRIRYRPPRLPRPRPRPYCGPRP | -0.456
90 | RRIRHRPPRLPRPRPRPVCQPRP | -0.147
91 | RRIRYRPPRLPRPRPRPWYPPRP | -0.485
92 | RRIRNRPPRLPRPRPRPKNWPRP | 0.168
93 | RRIRYRPPRLPRPRPRPVACPRP | -0.187
94 | RRIRHRPPRLPRPRPRPTYYPRP | -0.0104
95 | RRIRWRPPRLPRPRPRPSIEPRP | 0.0114
96 | RRIRQRPPRLPRPRPRPPGQPRP | 0.136
97 | RRIRERPPRLPRPRPRPGQSPRP | 0.0977
98 | RRIRPRPPRLPRPRPRPAFAPRP | 0.374
99 | RRIRARPPRLPRPRPRPNMTPRP | 0.147
100 | RRIRERPPRLPRPRPRPGKCPRP | -0.205

Row | Sequence | shrunken log2 fold change
101 | RRIRGRPPRLPRPRPRPRGLPRP | 1.05
102 | RRIRGRPPRLPRPRPRPSKSPRP | -0.0596
103 | RRIRQRPPRLPRPRPRPKHHPRP | -0.391
104 | RRIRVRPPRLPRPRPRPGMKPRP | -1.14
105 | RRIRCRPPRLPRPRPRPTWQPRP | 0.288
106 | RRIRERPPRLPRPRPRPTLAPRP | 0.269
107 | RRIRKRPPRLPRPRPRPCYVPRP | -0.69
108 | RRIRVRPPRLPRPRPRPWYNPRP | -0.153
109 | RRIRVRPPRLPRPRPRPGCIPRP | -0.0275
110 | RRIRIRPPRLPRPRPRPYGAPRP | -0.199
111 | RRIRPRPPRLPRPRPRPFEMPRP | 0.0143
112 | RRIRARPPRLPRPRPRPAEQPRP | 0.728
113 | RRIRNRPPRLPRPRPRPQLDPRP | 0.112
114 | RRIRTRPPRLPRPRPRPFNSPRP | -0.127
115 | RRIRERPPRLPRPRPRPHFRPRP | -0.624
116 | RRIRSRPPRLPRPRPRPRNAPRP | 0.374
117 | RRIRPRPPRLPRPRPRPGGGPRP | 0.728
118 | RRIRARPPRLPRPRPRPILKPRP | 0.221
119 | RRIRWRPPRLPRPRPRPLYRPRP | -0.552
120 | RRIRFRPPRLPRPRPRPEPQPRP | 0.417
121 | RRIRQRPPRLPRPRPRPFDIPRP | -0.16
122 | RRIRARPPRLPRPRPRPLVKPRP | 0.0577
123 | RRIRLRPPRLPRPRPRPGAHPRP | 0.057
124 | RRIRRRPPRLPRPRPRPCVLPRP | -0.027
125 | RRIRRRPPRLPRPRPRPIKKPRP | 0.907
